The record followed here is US9611297 (THRASOS THERAPEUTICS, dated 2017).

Assay [1] concerns the target T1, human uromodulin (human, UniProt P07911 25-614). The assay is described as follows: competition ELISA; biotin-uromodulin + peptide on coated light chain ROC (competitor). The method, then: (§1) Enzyme-linked immunosorbant assays (ELISA) were performed on the disclosed peptides. Plates were coated with the following light chain clones overnight at 4° C.: 0.05 uM BER (subtype lambda, isolated from SP2/0 cells), 0.2 uM ROC (subtype kappa, isolated from CHO cells), and 0.3 uM BEN (subtype lambda, isolated from CHO cells). The plates were washed and treated with bovine serum albumin (BSA) overnight at 4° C. For peptide plates, 10 nM biotin-uromodulin was mixed with peptide overnight at 4° C.

For assay [2], the target named is T1, human uromodulin. Description: competition ELISA; biotin-uromodulin + peptide on coated light chain BER (competitor). Here is the method: as §1

Positions of bridges follow the written chain, without caps; N, C: chain ends. Non-standard residues stand in square brackets, D forms with d. No end group written: not given here.

B1: SEQ ID No. 47 (peptide)
peptide: [dK][dK]CQQS[dY]SIPYTC[dK][dK]
modifications: disulfide 3-13 (inferred)
notes: synthetic; disulfide bridge formed per general procedure; also called K*K*CQQSY*SIPYTCK*K*
Regarding B1, the IC50 is 33.5 µM in assay [1] and 32.3 µM in assay [2].

What is called IC50 is the concentration that inhibits the measured activity by half.
